From patent publication US20050058697A1, “Cell penetrating therapeutic agents” (priority 2001, published 2005) come the findings set out here.

Series [1] is described as follows: Association of AntpHD-Cw3 with liposomes (size exclusion chromatography, micro BCA protein assay, [3H]CHE lipid count). The class given is physicochemical. The note with it: for coupling efficiency: 10 mol % DOGS-NTA-Ni. How it is done:
Formulations were incubated with AntpHD-Cw3, free peptide was separated from the associated peptide using size exclusion chromatography, amount of peptide (□) and lipid (●) was then determined for each fraction as described herein.
DOPC/Chol liposomes containing 0% (O) and 10% (▪) DOGS-NTA-Ni were incubated with AntpHD-Cw3 at various peptide to liposome ratio for 30 min. at room temperature. The amount of peptide bound was determined after the incubation period as described herein. Data presented represent averaged results obtained from three liposome preparations ±S.E.M.
200 μg of dialyzed AntpHD-Cw3 was incubated with 10 μmoles liposomes as described for FIGS. 2-4 (v/v) for 30 min. at room temperature under rotary shaking. The mixture was then loaded on a Biogel™ A 1.5 m chromatography column in order to remove the free peptide from peptide that was incorporated into the liposome. The peptide/liposome ratio was determined by quantifying liposomal lipid using [^3H]CHE. Radioactivity was measured by liquid scintillation counting on a Can berra-Packard scintillation P counter (1900 TR Tri Carb™), using Pico-fluor 40™ scintillation cocktail. The peptide was quantified using the micro BCA™ protein assay kit, after dissolving the liposomes in 0.5% triton. BSA was used as the standard for this analysis.
For orientation: SEC sorts molecules by how far they enter the pores of the column.

`CCCCCCCC/C=C\CCCCCCCC(=O)OC[C@H](COC(=O)CCC(=O)NCCCCC(C(=O)O)N(CC(=O)[O-])CC(=O)[O-])OC(=O)CCCCCCC/C=C\CCCCCCCC.[Ni+2]` (stereo partly shown) [DOGS-NTA-Ni, 1,2-Dioleoyl-sn-glycero-3-{[n(5-amino-1-carboxypentyl)iminodiaceticacid]succinyl} (Nickel Salt)]: the “immune response to the lipid alone” value is “little in the way of a detectable immune response”.
Regarding “AntpHD-Cw3: Antennapedia homeodomain fused to Cw3 epitope (170-179), with 10-histidine tag and 13-amino acid linker (SEQ ID NO:1)”, the coupling efficiency in series [1] (initial ratio 60 AntpHD-Cw3/μmole lipid) turned out to be 80%; in series [1] (initial ratio 80 AntpHD-Cw3/μmole lipid), 65%. The “saturation of AntpHD-Cw3 binding” value in series [1] (liposomes with 10 mol % DOGS-NTA-Ni, FIG. 3) is on record as “around 50 μg AntpHD-Cw3/μmole liposomal lipid”.
